Data: the supplement of paper PMC10567573

B1: GLTSCR2 (parent)
chain: LARRRRRRQARREAEADKPRRLGR
B2: RSAD1 (parent)
chain: YCNFNKYIPRRLEEAAMQKCLVTE

Variants of: B1
Assay: protein stability index of a GFP-peptide fusion (GPS, HEK-293T) (PSI 1-6); higher = more stable
Conditions: c terminus: a fixed tail appended
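Also: lentivirally expressed fusions sorted by FACS into six bins by GFP to DsRed ratio, PSI derived from sequencing read proportions per bin multiplied by bin number.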

Variant	protein stability index
LARRRRRRQARREAEADKPRRVGR [L22V]	5.4
LARRRRRRQARREAEADKPRRTGR [L22T]	4.74
LARRRRRRQARREAEADKPRRWGR [L22W]	4.62
LARRRRRRQARREAEADKPRRYGR [L22Y]	4.35
LARRRRRRQARREAEADKPRRLGK [R24K]	4.67
LARRRRRRQARREAEADKPRRLGP [R24P]	4.67
LARRRRRRQARREAEADKPRRLGH [R24H]	4.8
LARRRRRRQARREAEADKPRRLGC [R24C]	4.44
LARRRRRRQARREAEADKPRRLGS [R24S]	4.85
LARRRRRRQARREAEADKPRRLGW [R24W]	3.84
LARRRRRRQARREAEADKPRRLGT [R24T]	4.6
LARRRRRRQARREAEADKPRRLGV [R24V]	4.42
LARRRRRRQARREAEADKPRRLGF [R24F]	4.3
LARRRRRRQARREAEADKPRRLGY [R24Y]	4.8
LARRRRRRQARREAEADKPRRLGA [R24A]	4.72
LARRRRRRQARREAEADKPRRLGN [R24N]	4.28
LARRRRRRQARREAEADKPRRLGD [R24D]	5.02
LARRRRRRQARREAEADKPRRLGG [R24G]	4.79
LARRRRRRQARREAEADKPRRLGQ [R24Q]	4.62
LARRRRRRQARREAEADKPRRLGL [R24L]	4.58
LARRRRRRQARREAEADKPRRLGM [R24M]	4.28

Variant	protein stability index
LARRRRRRQARREAEADKPRRLGE [R24E]	4.12
LARRRRRRQARREAEADKPRRLGI [R24I]	4.47
LARRRRRRQARREAEADKPRRLCR [G23C]	4.57
LARRRRRRQARREAEADKPRRLIR [G23I]	4.53
LARRRRRRQARREAEADKPRRLMR [G23M]	4.17
LARRRRRRQARREAEADKPRRLDR [G23D]	4.9
LARRRRRRQARREAEADKPRRLSR [G23S]	5.18
LARRRRRRQARREAEADKPRRLYR [G23Y]	4.44
LARRRRRRQARREAEADKPRRLRR [G23R]	4.57
LARRRRRRQARREAEADKPRRLER [G23E]	4.68
LARRRRRRQARREAEADKPRRLAR [G23A]	4.34
LARRRRRRQARREAEADKPRRLQR [G23Q]	4.51
LARRRRRRQARREAEADKPRRLWR [G23W]	4.46
LARRRRRRQARREAEADKPRRLTR [G23T]	5.05
LARRRRRRQARREAEADKPRRLPR [G23P]	4.77
LARRRRRRQARREAEADKPRRLNR [G23N]	4.64
LARRRRRRQARREAEADKPRRLLR [G23L]	4.18
LARRRRRRQARREAEADKPRRLVR [G23V]	4.45
LARRRRRRQARREAEADKPRRLHR [G23H]	4.79
LARRRRRRQARREAEADKPRRLFR [G23F]	4.44
LARRRRRRQARREAEADKPRRLKR [G23K]	3.76

Variants of: B2
Assay: as above
Conditions: c terminus: a fixed tail appended

Variant	protein stability index
VCNFNKYIPRRLEEAAMQKCLVTE [Y1V]	1.99
SCNFNKYIPRRLEEAAMQKCLVTE [Y1S]	2.46
ICNFNKYIPRRLEEAAMQKCLVTE [Y1I]	2.76
FCNFNKYIPRRLEEAAMQKCLVTE [Y1F]	1.68
ECNFNKYIPRRLEEAAMQKCLVTE [Y1E]	2.49
WCNFNKYIPRRLEEAAMQKCLVTE [Y1W]	2.65
PCNFNKYIPRRLEEAAMQKCLVTE [Y1P]	2.27
TCNFNKYIPRRLEEAAMQKCLVTE [Y1T]	2.38
QCNFNKYIPRRLEEAAMQKCLVTE [Y1Q]	3.07
DCNFNKYIPRRLEEAAMQKCLVTE [Y1D]	2.47
HCNFNKYIPRRLEEAAMQKCLVTE [Y1H]	2.94
MCNFNKYIPRRLEEAAMQKCLVTE [Y1M]	2.32
ACNFNKYIPRRLEEAAMQKCLVTE [Y1A]	2.31
GCNFNKYIPRRLEEAAMQKCLVTE [Y1G]	1.89
RCNFNKYIPRRLEEAAMQKCLVTE [Y1R]	1.96
LCNFNKYIPRRLEEAAMQKCLVTE [Y1L]	2.72
KCNFNKYIPRRLEEAAMQKCLVTE [Y1K]	2.63
NCNFNKYIPRRLEEAAMQKCLVTE [Y1N]	2.58
CCNFNKYIPRRLEEAAMQKCLVTE [Y1C]	1.97
YCMFNKYIPRRLEEAAMQKCLVTE [N3M]	2.24
YCIFNKYIPRRLEEAAMQKCLVTE [N3I]	1.61
YCAFNKYIPRRLEEAAMQKCLVTE [N3A]	2.13
YCKFNKYIPRRLEEAAMQKCLVTE [N3K]	1.84
YCGFNKYIPRRLEEAAMQKCLVTE [N3G]	2.94
YCVFNKYIPRRLEEAAMQKCLVTE [N3V]	1.85
YCCFNKYIPRRLEEAAMQKCLVTE [N3C]	1.95

Variant	protein stability index
YCQFNKYIPRRLEEAAMQKCLVTE [N3Q]	2.04
YCLFNKYIPRRLEEAAMQKCLVTE [N3L]	1.66
YCHFNKYIPRRLEEAAMQKCLVTE [N3H]	2.74
YCTFNKYIPRRLEEAAMQKCLVTE [N3T]	2.6
YCRFNKYIPRRLEEAAMQKCLVTE [N3R]	1.66
YCFFNKYIPRRLEEAAMQKCLVTE [N3F]	2.4
YCSFNKYIPRRLEEAAMQKCLVTE [N3S]	1.84
YCEFNKYIPRRLEEAAMQKCLVTE [N3E]	1.99
YCPFNKYIPRRLEEAAMQKCLVTE [N3P]	2.03
YWNFNKYIPRRLEEAAMQKCLVTE [C2W]	1.82
YRNFNKYIPRRLEEAAMQKCLVTE [C2R]	2.42
YFNFNKYIPRRLEEAAMQKCLVTE [C2F]	2.35
YMNFNKYIPRRLEEAAMQKCLVTE [C2M]	2.31
YQNFNKYIPRRLEEAAMQKCLVTE [C2Q]	1.87
YKNFNKYIPRRLEEAAMQKCLVTE [C2K]	2.31
YYNFNKYIPRRLEEAAMQKCLVTE [C2Y]	1.89
YHNFNKYIPRRLEEAAMQKCLVTE [C2H]	3.01
YGNFNKYIPRRLEEAAMQKCLVTE [C2G]	2.48
YINFNKYIPRRLEEAAMQKCLVTE [C2I]	1.76
YDNFNKYIPRRLEEAAMQKCLVTE [C2D]	2.88
YSNFNKYIPRRLEEAAMQKCLVTE [C2S]	1.84
YENFNKYIPRRLEEAAMQKCLVTE [C2E]	2.98
YPNFNKYIPRRLEEAAMQKCLVTE [C2P]	1.44
YTNFNKYIPRRLEEAAMQKCLVTE [C2T]	2.2
YANFNKYIPRRLEEAAMQKCLVTE [C2A]	2.33
YNNFNKYIPRRLEEAAMQKCLVTE [C2N]	2.84
